This is an account of results in publication PMC8401255.

For the test, the target named is gramicidin A (Bacillus brevis). The test is described as follows: single-channel electrophysiology on a planar lipid bilayer; gA in a free-standing DPhPC planar bilayer (painting method, n-decane); dimer (channel) lifetime recorded with an Axopatch amplifier for 30 min at 20 °C; lidocaine or tetracaine in the buffer at 1, 3, 6 and 10 mM; lifetime normalised to that without local anesthetic (tau/tau0); monomer to dimer.

As for gramicidin A (peptide), the normalized dimer lifetime (tau/tau0) at 1 mM lidocaine is 1.33, the normalized dimer lifetime (tau/tau0) at 1 mM tetracaine was 1.88, the normalized dimer lifetime (tau/tau0) at 10 mM lidocaine is 3.66 and the normalized dimer lifetime (tau/tau0) at 10 mM tetracaine is 6.85.
